Data on 3 molecules can be found in article PMC5449630.

Like-named read-outs stand apart in the source and are kept apart here.

Data set [1] deals with T1, mPNKP D170A (Mus musculus (murine), UniProt Q9JLV6 1-522, D170A). The data set is described as follows: EMSA. Background: Mobility shift assays separate free from complexed probe on a gel.
For data set [2], the target named is T1, mPNKP D170A. The data set is described as follows: EMSA. The source holds these as a separate data set.

T1 sequence (Q9JLV6 whole entry D170A): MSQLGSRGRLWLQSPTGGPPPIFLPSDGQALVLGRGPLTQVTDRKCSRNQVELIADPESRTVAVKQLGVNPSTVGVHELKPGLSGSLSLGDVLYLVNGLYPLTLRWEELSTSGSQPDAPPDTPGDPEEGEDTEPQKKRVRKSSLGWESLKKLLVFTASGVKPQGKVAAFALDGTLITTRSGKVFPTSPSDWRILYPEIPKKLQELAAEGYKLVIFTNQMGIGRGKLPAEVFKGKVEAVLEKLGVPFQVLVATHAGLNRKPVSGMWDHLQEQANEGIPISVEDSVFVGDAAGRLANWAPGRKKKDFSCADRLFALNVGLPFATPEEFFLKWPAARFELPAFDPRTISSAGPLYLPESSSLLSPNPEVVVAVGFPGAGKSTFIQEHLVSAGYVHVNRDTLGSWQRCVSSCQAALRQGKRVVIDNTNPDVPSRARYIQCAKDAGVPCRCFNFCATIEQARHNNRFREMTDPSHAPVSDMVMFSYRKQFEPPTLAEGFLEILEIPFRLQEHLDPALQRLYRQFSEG

B1: FAM-20p/20c blunt duplex (dsDNA)
DNA 1: TAGCACCTACCGATTGTATG
DNA 2: CATACAATCGGTAGGTGCTA
modifications: 3'-phosphate on strand 1; 5'-phosphate on strand 2
As to B1, the binding result in the data set with mPNKP D170A [1] is recorded as “binds”.

B2: FAM-20p/36c 5' overhang duplex (dsDNA)
DNA 1: TAGCACCTACCGATTGTATG
DNA 2: CGACACAAAAACGTATCATACAATCGGTAGGTGCTA
modifications: 3'-phosphate on strand 1; 5'-phosphate on strand 2
As to B2, the binding result in the data set with mPNKP D170A [1] is given as “binds”. TAGCACCTACCGATTGTATG (ssDNA, 3'-phosphate) [FAM-20p ssDNA]: the binding result with mPNKP D170A [2] is reported as “binds”.
